Measured values: patent US8349320 (dated 2013)

Key:
[1] = target: T1, human BTLA expressed on cells (human, UniProt Q7Z6A9 31-289); experiment: FACS binding to transfected 293T cells; bottom panel; axis printed mHVEM:Fc, presumably hHVEM:Fc
[2] = target: T2, mouse BTLA expressed on cells (mouse, UniProt Q7TSA3 30-306); experiment: FACS binding to transfected 293T cells; top panel
T2 chain: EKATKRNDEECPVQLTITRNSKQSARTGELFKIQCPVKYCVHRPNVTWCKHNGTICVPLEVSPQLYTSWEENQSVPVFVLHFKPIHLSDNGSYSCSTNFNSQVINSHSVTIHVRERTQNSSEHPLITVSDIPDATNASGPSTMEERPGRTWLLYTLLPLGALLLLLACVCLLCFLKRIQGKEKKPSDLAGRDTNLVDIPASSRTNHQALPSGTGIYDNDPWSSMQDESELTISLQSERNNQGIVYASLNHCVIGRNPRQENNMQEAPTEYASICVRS

[3] = target: T1, human BTLA expressed on cells; experiment: FACS binding to transfected 293T cells; top panel

T1 sequence (Q7Z6A9 31-289): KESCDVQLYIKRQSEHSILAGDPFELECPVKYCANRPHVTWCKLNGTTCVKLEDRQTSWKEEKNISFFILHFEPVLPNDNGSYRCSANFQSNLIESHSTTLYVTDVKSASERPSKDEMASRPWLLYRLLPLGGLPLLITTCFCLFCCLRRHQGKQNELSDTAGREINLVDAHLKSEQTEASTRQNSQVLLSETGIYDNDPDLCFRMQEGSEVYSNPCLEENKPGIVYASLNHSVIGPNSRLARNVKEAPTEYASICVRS

B1: human HVEM-Fc (Fc fusion)
chain: LPSCKEDEYPVGSECCPKCSPGYRVKEACGELTGTVCEPCPPGTYIAHLNGLSKCLQCQMCDPAMGLRASRNCSRTENAVCGCSPGHFCIVQDGDHCAACRAYATSSPGQRVQKGGTESQDTLCQNCPPGTFSPNGTLEECQHQTKCSWLVTKAGAGTSSSHWV
modifications: in the FIG. 3H assay biotinylated with NHS-PEO4-Biotin, 2 biotin molecules per HVEM-Fc (sites not given)
B1 showed an EC50 [1] of over 25 µg/mL.

B2: mouse HVEM-Fc (Fc fusion)
chain: QPSCRQEEFLVGDECCPMCNPGYHVKQVCSEHTGTVCAPCPPQTYTAHANGLSKCLPCGVCDPDMGLLTWQECSSWKDTVCRCIPGYFCENQDGSHCSTCLQHTTCPPGQRVEKRGTHDQDTVCADCLTGTFSLGGTQEECLPWTNCSAFQQEVRRGTNSTDTTCSSQ
Binder B2 has an EC50 [2] of 0.8 µg/mL and an EC50 [3] of 0.5 µg/mL.
